Patent US20020198363A1

Biological target: chimera protein of europium (Eu) labeled human glycoprotein Ib α-chain and a mouse IgG2a Fc region (human; mouse) (UniProt P07359)
Chain of UniProt P07359 (P07359 17-335 limits assumed, change not shown): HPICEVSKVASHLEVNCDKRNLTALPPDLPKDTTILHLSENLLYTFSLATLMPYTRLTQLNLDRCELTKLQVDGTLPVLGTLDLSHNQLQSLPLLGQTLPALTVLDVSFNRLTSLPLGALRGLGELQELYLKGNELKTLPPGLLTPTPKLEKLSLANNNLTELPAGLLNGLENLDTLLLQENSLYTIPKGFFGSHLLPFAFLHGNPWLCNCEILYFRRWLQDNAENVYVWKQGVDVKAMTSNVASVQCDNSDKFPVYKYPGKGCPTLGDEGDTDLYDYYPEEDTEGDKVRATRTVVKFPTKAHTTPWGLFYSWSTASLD

Row | Substance | IC50 [µg/mL]
1 | AS1051-PEG20000 (from UniProt P81508 1-126) | 0.0903
2 | AS1051-PEG5000 (from UniProt P81508 1-126) | 0.0981
